Data published in patent US8022188B2, “Immunosuppressant binding antibodies and methods of obtaining and using same” (Abbott Laboratories, priority 2006, dated 2011).
Where two headings read alike, the source gives them in different places.

Legend:
[1] = cited from earlier work
[2] = Kinetic Exclusion Assay (KinExA) affinity determination of IgG; assay type: binding; details: for Fold Improvement: KD, relative to 1-60-46 WT IgG
Method: The equilibrium dissociation constants for both the 1-60-46 AM2 IgG and the 1-60-46 WT mAb IgG produced from the murine hybridoma cell line 1-60-46 were determined using Kinetic Exclusion Assay (KinExA®), available from Sapidyne Instruments (Boise, Id.) (See, Darling and Brault, ASSAY and Drug Development Technologies, 2(6):647-657 (2004)). A constant amount of IgG antibody (AM2 or WT) was incubated with various concentrations (10^−8 M to 10^−13 M) of tacrolimus drug (commercially available from Astellas Pharma, Inc., Tokyo, Japan) and allowed to come to equilibrium (2 hours to 14 hours) before sampling. The amount of free binding sites was determined by injecting the antibody:tacrolimus reaction mixture over bt-tacro immobilized to a solid-phase. Tacrolimus IgG antibody bound to the bt-tacro immobilized to the solid-phase was subsequently detected by injecting goat anti-mouse polyclonal antibody conjugates (GAM) to Cy5 (GAM-Cy5) fluorescent dye. The degree of GAM-Cy5 bound was proportional to the amount of tacrolimus IgG bound to the immobilized bt-tacro and was detected after excitation with the appropriate wavelength. The KD was determined by analyzing the amount of free binding sites versus the amount of antigen present in the reaction sample using software provided by the manufacturer (Sapidyne Instruments; Boise, Id.).

C=CC[C@@H]1/C=C(\C)C[C@H](C)C[C@H](OC)[C@H]2O[C@@](O)(C(=O)C(=O)N3CCCC[C@H]3C(=O)O[C@H](/C(C)=C/[C@@H]3CC[C@@H](O)[C@H](OC)C3)[C@H](C)[C@@H](O)CC1=O)[C@H](C)C[C@@H]2OC [Tacrolimus]
in vivo potency greater than cyclosporine CsA [1]: 50-100 times

B1: 1-60-46 AM2 IgG: murine IgG2a/κ containing the H2-1A, L1-1B and L3-A mutations; SEQ ID NO:40 and 42 (antibody)
heavy: EVELVESGGDLVKPGGSLKLSCAASGFTFSSYGMSWVRQTPDKRLEWVATISSGGAWTFYPDSVKGRFTISRDNAKNTLSLQMSSLKSADTAMYYCSRQTDGYSWFPYWGQGTLVTVSASAKTTAPSVYPLAPVCGDTTGSSVTLGCLVKGYFPEPVTLTWNSGSLSSGVHTFPAVLQSDLYTLSSSVTVTSSTWPSQSITCNVAHPASSTKVDKKIEPRGPTIKPCPPCKCPAPNLLGGPSVFIFPPKIKDVLMISLSPIVTCVVVDVSEDDPDVQISWFVNNVEVHTAQTQTHREDYNSTLRVVSALPIQHQDWMSGKEFKCKVNNKDLPAPIERTISKPKGSVRAPQVYVLPPPEEEMTKKQVTLTCMVTDFMPEDIYVEWTNNGKTELNYKNTEPVLDSDGSYFMYSKLRVEKKNWVERNSYSCSVVHEGLHNHHTTKSFSRTPGK
light: DVLMTQTPLSLPVSLGDQASISCKSSQGLVHSTGNTFLEWFLQKPGQSPKLLIYKISNRFSGVPDRFSGSGSGTDFTLKISRVESEDLGVYYCFQGSHAPLTFGAGTKLELKRASADAAPTVSIFPPSSEQLTSGGASVVCFLNNFYPKDINVKWKIDGSERQNGVLNSWTDQDSKDSTYSMSSTLTLTKDEYERHNSYTCEATHKTSTSPIVKSFNRNEC
modifications: Mouse
Fold Improvement ([2]; 10% MeOH): 12x | Fold Improvement ([2]; no MeOH): 16x | improvement in KD relative to the 1-60-46 WT IgG ([2]; physiological diluent): 16 fold | Kd ([2]; physiological diluent (PBS pH 7.4, 1% BSA), read-out: KD (no MeOH)): 1.2 pM | improvement in KD relative to the 1-60-46 WT IgG ([2]; selection diluent): 12 fold | Kd ([2]; selection diluent (PBS, 1% BSA, 10% methanol), read-out: Kd (10% MeOH)): 13 pM
